Measurements published in the supplement of paper PMC12764529.
± gives the half width of the 95% confidence interval.

Key:
[1] = folding stability dG unfold (combined trypsin and chymotrypsin); higher = more stable
How it was run: (§1)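 K50 was inferred by Bayesian fitting of sequencing counts obtained after protease digestion of designed mini-proteins. Unfolding free energy was derived by comparison with a sequence-predicted unfolded-state K50 and a shared folded-state K50, for each protease or both combined. The mini-proteins were under 80 residues, had no cysteine, were carried in a PA-tagged cDNA display construct, and were kept only if AlphaFold2 dimer inter-PAE exceeded 15.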

[2] = folding stability dG unfold from trypsin proteolysis; higher = more stable
How it was run: as §1

[3] = folding stability dG unfold from chymotrypsin proteolysis; higher = more stable
How it was run: as §1

Row | Sequence | folding stability dG unfold [1] | folding stability dG unfold [2] | folding stability dG unfold [3]
1 | SAGGMKPGETWRIRTPGKTITIEVKDGKITVTVEENGKKKTIVVEAETEEEALEALRSIPGLEIEKVSAGGS [r16_583_TrROS_Hall] | 1.61 ± 0.16 kcal/mol | 1.73 ± 0.05 kcal/mol | 1.32 ± 0.13 kcal/mol
2 | SAGGMKSETIPLTTPEGVPFEVTITTENGKVTVTITPLDPSAPEEVVEAVRAAVEARAAAAGKTVTLVSAGG [r13_774_JUSTAS] | 1.42 ± 0.07 kcal/mol | 1.47 ± 0.046 kcal/mol | 1.37 ± 0.04 kcal/mol
3 | SAGGMKTFTLENPPLAPPDRPLGGSTLKLPDGTVLVRINLPSGETILLPSYEELEKLKASGEPVSVTASSAG [r5_42_JUSTAS] | 0.348 ± 0.12 kcal/mol | 0.285 ± 0.055 kcal/mol | 0.254 ± 0.15 kcal/mol
4 | SAGGMKTIEITIKTEDGYTIKIKITEKDGKLYIEIEIEDPNMSEEQREKIKKEIEELAKKLNIKVEIPSAGG [r13_774_TrROS_Hall] | 3.14 ± 0.42 kcal/mol | 3.48 ± 0.31 kcal/mol | 2.8 ± 0.27 kcal/mol
5 | SAGGMKTLKIKIKVPEDEEKAEELAKKLEELFGLKVEVEKKDGELTITVEVSEEVRELLKELGVEIEPSAGG [r13_156_TrROS_Hall] | 3.79 ± 0.16 kcal/mol | 2.58 ± 0.16 kcal/mol | 4.15 ± 0.089 kcal/mol
6 | SAGGMKTSAEELVERLKKELEAKGLKPKEVKKLPDGSLLVEFEEDVVVYIDAKTGTVTVLTPEEYEKLSAGG [r13_717_JUSTAS] | 2.4 ± 0.14 kcal/mol | 1.7 ± 0.12 kcal/mol | 2.68 ± 0.05 kcal/mol
7 | SAGGMKTVNLTYTRYLPDKTLEEAKELAKKDLESRGLKILSLPVSREPGAGVVTVSATVEVAPPSLLSAGGS [r16_287_JUSTAS] | 3.82 ± 0.27 kcal/mol | 3.67 ± 0.12 kcal/mol | 3.99 ± 0.1 kcal/mol
8 | SAGGMKTYEYELELEGGGRLRIKITEDPNNPVYTVTFYSPEGKKLKTITIPANSIEEALKEAIELLKSAGGS [r16_158_JUSTAS] | 4.73 ± 0.18 kcal/mol | 4.6 ± 0.29 kcal/mol | 4.79 ± 0.12 kcal/mol
9 | SAGGMKVDPKTNITTIEFPSSNLPELKEAIEKTGEKPVVVILKDPNSDREVRITLTKEEALKYLEKKSAGGS [r16_797_JUSTAS] | 0.565 ± 0.18 kcal/mol | 0.209 ± 0.14 kcal/mol | 0.71 ± 0.1 kcal/mol
10 | SAGGMKVEKNTIYIEVEKDMSAEEVAKKIAEELKKKGLKVEIKVEKKEDGTKVIRIKVDGKEIEIYASAGGS [r16_771_TrROS_Hall] | 1.51 ± 0.3 kcal/mol | 1.84 ± 0.094 kcal/mol | 1.13 ± 0.18 kcal/mol
11 | SAGGMKVEVEKDPIKDGTTITVETGLDPEEVRAFLEELLGPPLEDVTFETAPDGTLVVTARVPPDVGSAGGS [r16_605_JUSTAS] | 0.816 ± 0.12 kcal/mol | 0.627 ± 0.054 kcal/mol | 0.564 ± 0.048 kcal/mol
12 | SAGGMKVIEVEMTADEVKALVKELAEKDDLKIYIYVDGKKIELTVDEIKKIPPENQKVTIIIEKKKESAGGS [r16_628_TrROS_Hall] | 3.07 ± 0.28 kcal/mol | 2.95 ± 0.22 kcal/mol | 3.11 ± 0.14 kcal/mol
13 | SAGGMKVRVRLPDGTEVELEVTEVTVSTDPSTGTPVYTITLANGEKLTVTVPVDKPVRPGETVTVTPESAGG [r13_390_JUSTAS] | 3.81 ± 0.056 kcal/mol | 3.72 ± 0.056 kcal/mol | 3.71 ± 0.053 kcal/mol
14 | SAGGMKVTEEPDATIVEVPLPDRKLTLTITRDGPGVTVTVTEDGEVLKTIPTDGPAEEAIAAAIAALSAGGS [r8_276_JUSTAS] | 1.29 ± 0.07 kcal/mol | 1.04 ± 0.016 kcal/mol | 1.43 ± 0.059 kcal/mol
15 | SAGGMKVTITVTDPEAFRAAVEALPEVPPEQVSTSPLPGNSYTATFPSEKAVELLKAAGVPITEIAASAGGS [r16_381_JUSTAS] | 0.568 ± 0.05 kcal/mol | 0.377 ± 0.022 kcal/mol | 0.63 ± 0.074 kcal/mol
16 | SAGGMKVTVTEDGSSSKVTITIKDPKTGIEKTYTATATVLPDGTVVYTITYPDGSKKTIPSSELELSSAGGS [r16_154_JUSTAS] | 3.61 ± 0.11 kcal/mol | 2.11 ± 0.087 kcal/mol | 4.02 ± 0.051 kcal/mol
17 | SAGGMKVTVYPDGTVSVEIEPGQTLTVSLGDKEYTVTAEYPSITITTTPVPVPPPAVPPENVDPSLVSAGGS [r16_600_JUSTAS] | 1.23 ± 0.15 kcal/mol | 1.54 ± 0.11 kcal/mol | 0.984 ± 0.051 kcal/mol
18 | SAGGMKYLVTITITDPDTGQERVIEVEFPDMTPEEIKEAAEELAEEIASEQGLNLKVEVEVTPIPLLSAGGS [r8_185_JUSTAS] | 3.55 ± 0.068 kcal/mol | 3.95 ± 0.11 kcal/mol | 3.34 ± 0.077 kcal/mol
19 | SAGGMLEVTEEPLELGDRPVTRTTITLPDGTVVTVTTEAGTGAMTVTYPDGTTKTVTSEEDALAALLSAGGS [r8_168_JUSTAS] | 2.02 ± 0.094 kcal/mol | 2.66 ± 0.11 kcal/mol | 1.19 ± 0.051 kcal/mol
20 | SAGGMLGFRAETDLFVEPIPPGAEVEPLRIGDRLLLIVRHPDGSYTINLFTPVRPLPVPPAFSTANAASAGG [r13_804_TrMRF] | 1.68 ± 0.051 kcal/mol | 1.6 ± 0.036 kcal/mol | 1.64 ± 0.069 kcal/mol
21 | SAGGMLILIKVKNKKYEIEINGKKIEVEEKDGYLIIKVSPEALEALKKIPNLENIEEIKIFPEEELKSAGGS [r8_493_TrROS_Hall] | 2.32 ± 0.089 kcal/mol | 2.07 ± 0.035 kcal/mol | 2.57 ± 0.033 kcal/mol

Row | Sequence | folding stability dG unfold [1] | folding stability dG unfold [2] | folding stability dG unfold [3]
22 | SAGGMLLVRIRVKLSPEQIKALEEAGFEVVEERDGEVVVRLEVSPEQLEKLKALFPDAEIEVVELPPESAGG [r13_261_TrROS_Hall] | 5.26 ± 0.29 kcal/mol | 5.44 ± 0.49 kcal/mol | 4.96 ± 0.1 kcal/mol
23 | SAGGMLPGEPEVELVLEIEIDVPPGEISAEELERLLRELFPGAEVVDVRVEEEGGKLRIEVVIRLPPSAGGS [r8_202_TrROS_Hall] | 3.17 ± 0.13 kcal/mol | 3.42 ± 0.14 kcal/mol | 2.67 ± 0.058 kcal/mol
24 | SAGGMLPLVVKVKTPDGEEYTFVVAYNPETSELWLPLPKEPTWRNVPLTEASSIPEFQIVEARPLALESAGG [r13_994_TrMRF] | 0.761 ± 0.087 kcal/mol | 0.348 ± 0.056 kcal/mol | 0.943 ± 0.064 kcal/mol
25 | SAGGMLRIRIDGREIEIGMTVEEILAAIEKELGREISPELREALRKAKTPEEIVEALRKLGLKIEIESAGGS [r16_601_TrROS_Hall] | 4.8 ± 0.087 kcal/mol | 3.66 ± 0.08 kcal/mol | 5.17 ± 0.086 kcal/mol
26 | SAGGMLVRVTLPSGETVELPVTSLDAAARRLREELGLPAGARLRVEVYDPVTGEVTEYELVIPVPEPVSAGG [r13_145_TrMRF] | 4.68 ± 0.1 kcal/mol | 4.92 ± 0.18 kcal/mol | 4.33 ± 0.062 kcal/mol
27 | SAGGMMKLELEIEKEDGKKYKIEVEYNKEEPVLKIKIYDKNGKKIKEIEIKAKSLEEALEAAKKLLKSAGGS [r16_158_TrROS_Hall] | 3.68 ± 0.22 kcal/mol | 3.3 ± 0.14 kcal/mol | 3.99 ± 0.2 kcal/mol
28 | SAGGMMTVRIVIEKDGKKITITAKVTKIEFDEETGKLTITFEDGSKKEIDLDKLKIKKIEVEPAPEEESAGG [r13_636_TrROS_Hall] | 2.81 ± 0.21 kcal/mol | 1.66 ± 0.078 kcal/mol | 3.06 ± 0.19 kcal/mol
29 | SAGGMMYLIKVDTKEELKELAEAPGAKIVEEKEVNGKLYLLIEFPPGVTKIKIDVETRKIVEIEKLPSAGGS [r8_251_TrROS_Hall] | 1.37 ± 0.26 kcal/mol | 0.759 ± 0.13 kcal/mol | 1.58 ± 0.15 kcal/mol
30 | SAGGMNMKPIKKETFTLPDENGNEVKIEIYKLEDGSYIIKITYPSGKTETFIVPDEETAKNLKIEIKPSAGG [r13_109_TrMRF] | 2.62 ± 0.18 kcal/mol | 1.66 ± 0.12 kcal/mol | 2.91 ± 0.046 kcal/mol
31 | SAGGMNTESSFPITLPDGRKVLKNVKTDPETGEITVTVTSIGDPNVKTTEKVDPENPEKVLETVTKPESAGG [r13_400_JUSTAS] | 0.0461 ± 0.15 kcal/mol | -0.353 ± 0.037 kcal/mol | 0.206 ± 0.11 kcal/mol
32 | SAGGMNVSYLFSKSVPKEEIEAYLKKLDPNKKYKFEELEPEEIEKLPESIEVIEKPVDETLRLVLVEESAGG [r13_649_JUSTAS] | 0.473 ± 0.12 kcal/mol | -0.323 ± 0.092 kcal/mol | 0.765 ± 0.11 kcal/mol
33 | SAGGMNVTVTVELVPLPDEPVLFVTVETEDGSVSVITFDPATGTATVLKVSPTKTEITTVPAEDILLASAGG [r13_328_TrMRF] | 2.43 ± 0.2 kcal/mol | 1.8 ± 0.13 kcal/mol | 2.79 ± 0.11 kcal/mol
34 | SAGGMPADTPVIPIEILDIRVEPDPESDSYTAEVKVRFPDGTEKTFTIKLPKDATLEDVIEKAKELAASAGG [r13_578_TrMRF] | 4.1 ± 0.18 kcal/mol | 3.83 ± 0.2 kcal/mol | 4.09 ± 0.11 kcal/mol
35 | SAGGMPDITEVELLDVEYDPETGTYRFRVKVKLKDGTEREVEIPFVDEDGDFGIEEILKAAEELVEESAGGS [r16_221_TrMRF] | 3.66 ± 0.18 kcal/mol | 2.71 ± 0.14 kcal/mol | 4 ± 0.045 kcal/mol
36 | SAGGMPEDMKLKFKVVDFRPHPHPDGYQIVELFYNDKLLRRLRVPPGLAVKLAKELPEDVALVTLPESAGGS [r8_41_TrMRF] | 1.28 ± 0.09 kcal/mol | 0.828 ± 0.086 kcal/mol | 1.53 ± 0.14 kcal/mol
37 | SAGGMPENMKWRPIPFTQKNPDGLTLKMKIWVFPDPYILIEHEVEDNGKPVAEIPILLPADDPEDLKSAGGS [r16_714_TrROS] | 0.389 ± 0.2 kcal/mol | -0.66 ± 0.6 kcal/mol | 0.513 ± 0.42 kcal/mol
38 | SAGGMPGVRPVVTVTVLVKFPGPDETKTVTITMRPEELAAGVTPEAAARRVAEALGHDIEILEIERKSAGGS [r16_554_JUSTAS] | 1.61 ± 0.088 kcal/mol | 1.4 ± 0.04 kcal/mol | 1.86 ± 0.031 kcal/mol
39 | SAGGMPIILLEEKKLPNGEPVYRITLLERDPNDGSWRPIEEDELKTKEEAEERAKAIAEKRGVELLKSAGGS [r16_512_JUSTAS] | 1.43 ± 0.053 kcal/mol | 1.57 ± 0.026 kcal/mol | 1.34 ± 0.036 kcal/mol
40 | SAGGMPKTIEVEIVFKRDEEGKIGIDKIKKAAEELAKKFPEVKKVEVDIEEDPETDYVKVKVKVEVESAGGS [r8_258_TrMRF] | 2.1 ± 0.14 kcal/mol | 1.75 ± 0.059 kcal/mol | 2.34 ± 0.032 kcal/mol
41 | SAGGMPLDSPEVQRRLAALKEALAKAEALREAGLEVKVVSIEFDPETREVTIEVEVRPAPPPPPEEPSAGGS [r8_277_TrROS_Hall] | 1.92 ± 0.12 kcal/mol | 1.81 ± 0.1 kcal/mol | 1.77 ± 0.083 kcal/mol
